Results published in patent US20140378382A1 (WISCONSIN ALUMNI RESEARCH FOUNDATION, published 2014).
Where two headings read alike, the source gives them in different places. Values belong to the binder of their own block, whether it stands above or below them. Non-standard residues stand in square brackets, D forms with d. Primed or numbered codes have the meaning given here. No end group written: not given here. APC = aminopyrrolidine carboxylic acid (2-aminopyrrolidine-4-carboxylic acid); ACPC″ = 2-aminocyclopentane carboxylic acid (X); ACPC = 2-aminocyclopentane carboxylic acid

Columns and labels:
delNT PTHR1 = molecular target: T1, delNT PTHR1 (human, UniProt Q03431 27-593); assay: cell-based or functional assay
T1 sequence (looked up): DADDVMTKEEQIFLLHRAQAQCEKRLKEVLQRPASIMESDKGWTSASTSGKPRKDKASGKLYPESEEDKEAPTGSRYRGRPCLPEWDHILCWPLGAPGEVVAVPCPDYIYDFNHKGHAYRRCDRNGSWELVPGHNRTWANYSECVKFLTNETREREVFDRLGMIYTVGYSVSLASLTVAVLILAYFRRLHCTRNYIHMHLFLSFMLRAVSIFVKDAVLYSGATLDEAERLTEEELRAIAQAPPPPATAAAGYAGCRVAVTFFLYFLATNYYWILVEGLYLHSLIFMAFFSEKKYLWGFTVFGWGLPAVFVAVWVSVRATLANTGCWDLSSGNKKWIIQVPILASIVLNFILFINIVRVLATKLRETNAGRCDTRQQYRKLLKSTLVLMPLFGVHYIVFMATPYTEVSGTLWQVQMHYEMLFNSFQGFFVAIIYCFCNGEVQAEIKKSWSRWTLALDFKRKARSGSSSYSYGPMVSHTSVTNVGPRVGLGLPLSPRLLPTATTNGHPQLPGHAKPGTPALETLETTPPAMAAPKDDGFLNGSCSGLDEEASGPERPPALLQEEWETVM

[1] = molecular target: T2, human parathyroid hormone receptor 1, wild-type (hPTHR-1) (human, UniProt Q03431 27-593); assay: cell-based or functional assay
T2 sequence (looked up): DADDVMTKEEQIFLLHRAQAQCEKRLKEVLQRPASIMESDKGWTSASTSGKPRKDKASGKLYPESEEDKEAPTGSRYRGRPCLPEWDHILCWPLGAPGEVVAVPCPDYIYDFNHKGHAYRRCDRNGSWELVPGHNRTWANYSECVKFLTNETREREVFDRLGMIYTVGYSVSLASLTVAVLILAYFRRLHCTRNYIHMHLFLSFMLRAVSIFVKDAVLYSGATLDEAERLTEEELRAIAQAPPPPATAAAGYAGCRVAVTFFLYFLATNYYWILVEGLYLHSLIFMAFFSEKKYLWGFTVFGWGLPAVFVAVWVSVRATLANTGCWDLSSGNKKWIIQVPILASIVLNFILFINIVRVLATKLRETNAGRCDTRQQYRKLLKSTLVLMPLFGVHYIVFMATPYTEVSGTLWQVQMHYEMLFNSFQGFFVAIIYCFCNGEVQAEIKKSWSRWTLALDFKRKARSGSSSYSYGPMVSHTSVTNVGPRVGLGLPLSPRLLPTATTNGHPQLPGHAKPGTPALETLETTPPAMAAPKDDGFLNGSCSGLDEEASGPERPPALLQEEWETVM

[2] = molecular target: T3, PTHR-1 (species and cells not stated for the assay) (Homo sapiens (Human), UniProt Q03431 27-593); assay: cell-based or functional assay
T3 sequence: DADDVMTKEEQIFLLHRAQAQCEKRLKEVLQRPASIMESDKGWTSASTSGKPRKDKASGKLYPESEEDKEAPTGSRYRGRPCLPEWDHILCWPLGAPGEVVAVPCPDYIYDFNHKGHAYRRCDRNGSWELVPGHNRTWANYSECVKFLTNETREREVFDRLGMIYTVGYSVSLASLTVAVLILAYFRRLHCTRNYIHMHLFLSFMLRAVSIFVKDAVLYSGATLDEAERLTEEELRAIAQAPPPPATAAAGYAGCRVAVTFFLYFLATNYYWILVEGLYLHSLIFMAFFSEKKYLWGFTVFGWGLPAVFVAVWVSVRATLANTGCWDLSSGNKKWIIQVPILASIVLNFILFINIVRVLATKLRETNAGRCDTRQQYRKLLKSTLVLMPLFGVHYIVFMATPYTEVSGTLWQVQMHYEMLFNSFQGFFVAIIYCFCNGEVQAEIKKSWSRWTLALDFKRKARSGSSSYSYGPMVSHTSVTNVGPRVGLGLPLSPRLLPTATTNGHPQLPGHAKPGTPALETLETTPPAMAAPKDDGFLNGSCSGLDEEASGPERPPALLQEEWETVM

[3] = molecular target: T3, PTHR-1 (species and cells not stated …); assay: cell-based or functional assay; remark: listed apart in the source
[4] = molecular target: T4, rat parathyroid hormone receptor 1, wild-type (rPTHR-1) (rat, UniProt P25961 27-591); assay: cell-based or functional assay
T4 sequence (looked up): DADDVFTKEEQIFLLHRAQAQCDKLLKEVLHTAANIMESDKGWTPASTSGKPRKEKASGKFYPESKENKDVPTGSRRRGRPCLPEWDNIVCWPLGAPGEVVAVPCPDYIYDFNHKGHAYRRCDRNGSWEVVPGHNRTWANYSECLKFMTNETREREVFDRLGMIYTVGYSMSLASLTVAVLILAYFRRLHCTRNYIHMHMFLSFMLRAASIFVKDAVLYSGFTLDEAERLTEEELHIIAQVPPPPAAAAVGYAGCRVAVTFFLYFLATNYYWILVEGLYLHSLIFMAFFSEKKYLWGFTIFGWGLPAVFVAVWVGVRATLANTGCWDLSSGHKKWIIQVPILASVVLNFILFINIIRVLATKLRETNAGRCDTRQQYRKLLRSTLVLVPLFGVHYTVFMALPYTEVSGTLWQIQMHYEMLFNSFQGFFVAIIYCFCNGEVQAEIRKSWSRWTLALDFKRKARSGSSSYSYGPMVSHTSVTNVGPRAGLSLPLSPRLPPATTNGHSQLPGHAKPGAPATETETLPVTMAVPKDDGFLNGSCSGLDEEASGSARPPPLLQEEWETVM

[5] = molecular target: T4, rat parathyroid hormone receptor 1, …; assay: cell-based or functional assay; remark: listed apart in the source
[6] = molecular target: T4, rat parathyroid hormone receptor 1, …; assay: cell-based or functional assay; set-up: AUC-on / AUC-washout: unit not given beside the values
[7] = molecular target: T4, rat parathyroid hormone receptor 1, …; assay: RG state; 125I-M-PTH(1-15) displacement; COS-7 membranes, rPTHR-1 + Gαs mutant
Description: (§1) Binding inhibition constants are expressed as the -log (IC50) and corresponding nanoMolar (nM) values. Values are means (±SEM) of the number of experiments shown (n), each performed in duplicate.

[8] = molecular target: T2, human parathyroid hormone receptor 1, …; assay: R0 state; 125I-PTH(1-34) displacement; COS-7 membranes, hPTHR-1, GTPγS
Description: ^aValues are means of n ≧4 experiments, each performed in duplicate.

[9] = molecular target: T2, human parathyroid hormone receptor 1, …; assay: cell-based or functional assay; remark: listed apart in the source
[10] = molecular target: T4, rat parathyroid hormone receptor 1, …; assay: R0 state; 125I-PTH(1-34) displacement; COS-7 membranes, rPTHR-1, GTPγS
Description: as §1

[11] = molecular target: T2, human parathyroid hormone receptor 1, …; assay: R0 state; 125I-PTH(1-34) displacement; COS-7 membranes, hPTHR-1, GTPγS; remark: listed apart in the source
Description: FIGS. 6A, 6B, 6C, 6D, 6E, and 6F constitute a series of graphs depicting binding of various analogs to the R⁰ and RG forms of human PTHR-1 (hPTHR-1). […] Data are means (±SEM) of n≧4 experiments, each performed in duplicate.

[12] = molecular target: T2, human parathyroid hormone receptor 1, …; assay: cell-based or functional assay; remark: listed apart in the source
[13] = molecular target: parathyroid hormone receptor-2 (PTHR-2); assay: cell-based or functional assay
Chain of parathyroid hormone receptor-2 (PTHR-2) (P49190 whole entry): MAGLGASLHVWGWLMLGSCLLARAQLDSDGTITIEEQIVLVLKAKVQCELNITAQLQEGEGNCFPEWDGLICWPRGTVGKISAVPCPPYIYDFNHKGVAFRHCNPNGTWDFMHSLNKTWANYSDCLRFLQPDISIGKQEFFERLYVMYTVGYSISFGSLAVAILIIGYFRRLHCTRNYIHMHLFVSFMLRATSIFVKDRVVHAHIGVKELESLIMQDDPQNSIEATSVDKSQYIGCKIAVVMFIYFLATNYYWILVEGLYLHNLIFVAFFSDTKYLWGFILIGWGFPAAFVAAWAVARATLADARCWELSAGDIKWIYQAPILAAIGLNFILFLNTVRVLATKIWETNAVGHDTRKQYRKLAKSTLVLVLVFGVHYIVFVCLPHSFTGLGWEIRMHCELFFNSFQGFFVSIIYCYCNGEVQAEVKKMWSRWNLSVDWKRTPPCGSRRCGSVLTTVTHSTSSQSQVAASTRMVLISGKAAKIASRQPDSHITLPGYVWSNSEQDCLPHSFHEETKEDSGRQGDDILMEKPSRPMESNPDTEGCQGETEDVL

[14] = molecular target: T3, PTHR-1 (species and cells not stated …); assay: cell-based or functional assay; remark: listed apart in the source
[15] = molecular target: T2, human parathyroid hormone receptor 1, …; assay: cell-based or functional assay; remark: listed apart in the source
[16] = molecular target: T3, PTHR-1 (species and cells not stated …); assay: cell-based or functional assay; remark: listed apart in the source

EC50(+)inhibitor/EC50(-)inhibitor [3]: 60.1 ratio
EC50 of PTH(1-34) signaling with 1 µM inhibitor [3]: 9.47 nM
B1: bPTH(7-34)dTrp12 (peptide)
peptide: FMHNL[dW]KHLSSMERVEWLRKKLQDVHNF-NH2
modifications: N-terminus assumed
SMILES: CSCC[C@H](NC(=O)[C@H](CO)NC(=O)[C@H](CO)NC(=O)[C@H](CC(C)C)NC(=O)[C@H](Cc1c[nH]cn1)NC(=O)[C@H](CCCCN)NC(=O)[C@@H](Cc1c[nH]c2ccccc12)NC(=O)[C@H](CC(C)C)NC(=O)[C@H](CC(N)=O)NC(=O)[C@H](Cc1c[nH]cn1)NC(=O)[C@H](CCSC)NC(=O)[C@@H](N)Cc1ccccc1)C(=O)N[C@@H](CCC(=O)O)C(=O)N[C@@H](CCCNC(=N)N)C(=O)N[C@H](C(=O)N[C@@H](CCC(=O)O)C(=O)N[C@@H](Cc1c[nH]c2ccccc12)C(=O)N[C@@H](CC(C)C)C(=O)N[C@@H](CCCNC(=N)N)C(=O)N[C@@H](CCCCN)C(=O)N[C@@H](CCCCN)C(=O)N[C@@H](CC(C)C)C(=O)N[C@@H](CCC(N)=O)C(=O)N[C@@H](CC(=O)O)C(=O)N[C@H](C(=O)N[C@@H](Cc1c[nH]cn1)C(=O)N[C@@H](CC(N)=O)C(=O)N[C@@H](Cc1ccccc1)C(N)=O)C(C)C)C(C)C

EC50(+)inhibitor/EC50(-)inhibitor [3]: 1.6 ratio
EC50 of PTH(1-34) signaling with 1 µM inhibitor [3]: 0.25 nM
Binder: LMHNLGKHLNSMERVEWLRKKLQDVHNF-NH2 [hPTH(7-34)]

cAMP response PTH2R/PTH1R [13]: 11 ratio
Fold PTH [14]: 36.7 fold
cAMP EC50 [14]: 2.99 nM
Binder: [ACPC]VSE[ACPC]Q[ACPC]MHNLGKHLNSMERVEWLRKKLQDVHNF-NH2 [ACPC(1,5,7)]

The remaining lines, values behind:

Binder: SVSEIQ[ACPC]MHNLGKHLNSMERVEWLRKKLQDVHNF-NH2 [ACPC(7) PTH(1-34)]
Fold PTH (delNT PTHR1): 74 fold
cAMP EC50 (delNT PTHR1): 4600 nM
Fold PTH [1]: 1.3 fold
cAMP EC50 [1]: 0.12 nM
cAMP response PTH1R/PTH2R [2]: 44 ratio

Binder: SVSEIQLMHNLGKHLNSMERVEWLRKKLQDVHNF-NH2 [PTH(1-34)]
cAMP Max [4]: 65 cps × 10-3
cAMP Max [5]: 1 relative to PTH(1-34)
AUC-on [6]: 92000
AUC-washout [6]: 100000

B2: B3 (peptide)
peptide: SVSEIQLMHNLGKHLNSMERVEWLRKKLQDVQNF-NH2
modifications: not fully specified (residue 32); printed as SVSEIQLMHNLGKHLNSMERVEWLRKKLQDVQNF-NH2; also: three β3 residues, positions not given here in text
notes: also called α/β-peptide B3
-log (IC50) [7]: 8.07
IC50 [7]: 8.6 nM
IC50 [8]: 80 nM
cAMP EC50 [9]: 0.11 nM
cAMP Max [9]: 234 cps × 10^-3
cAMP pEC50 [9]: 9.94
-log (IC50) [10]: 6.95
IC50 [10]: 111 nM
cAMP EC50 [4]: 0.55 nM
cAMP Max [4]: 69 cps × 10-3
cAMP pEC50 [4]: 9.26
-log (IC50) [11]: 7.1
IC50 [11]: 80 nM
cAMP EC50 [12]: 0.11 nM
cAMP Max [12]: 1.08 relative to PTH(1-34)

Binder: AVSEHQLLHDKGK[ACPC]IQD[ACPC]RRR[APC]FLH[APC]LIA[ACPC]IHT[ACPC]-NH2 [CycD6 hPTHrP(1-34)]
cAMP EC50 [15]: 0.65 nM

Binder: [ACPC]VSE[ACPC]Q[ACPC]LHDKGK[ACPC]IQD[ACPC]RRR[APC]FLH[APC]LIA[ACPC]IHT[ACPC]-NH2 [CycD6 hPTHrP(1-34) ACPC(1,5,7)]
cAMP EC50 [15]: 1.08 nM

Binder: [ACPC]VSE[ACPC]Q[ACPC]LHDKGKSIQDLRRRFFLHKLIAEIHTA-NH2 (not fully specified; also: D6 β3 residues, positions not shown (marking lost)) [D6 hPTHrP(1-34) ACPC(1,5,7)]
cAMP EC50 [15]: 1.03 nM

Binder: [ACPC″]VSE[ACPC″]Q[ACPC″]MHNLGK[ACPC″]LNS[ACPC″]ERV[APC]WLR[APC]KLQ[ACPC″]VHN[ACPC″]-NH2 [FcycD6_ACPC(1,5,7)]
cAMP response PTH2R/PTH1R [13]: 45 ratio
cAMP EC50 [16]: 25.9 nM
Fold PTH [14]: 234 fold
cAMP EC50 [14]: 19.1 nM
